# Test system: Escherichia coli TOP10
# Assay: shrunken log2 fold change of peptide-encoding DNA abundance (4.5 h post-induction vs induction); higher = less antimicrobial activity (less host growth inhibition)
# Conditions: time post-induction: 4.5 h; library: site-saturation at positions 5, 18, 19, 20
# 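Further: peptides expressed intracellularly from a pBAD plasmid library in pooled LB shake-flask culture, induced with 0.3% L-arabinose, DNA abundance read by NGS, three biological replicates, DESeq2 with apeglm shrinkage.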
row,Sequence,shrunken log2 fold change
1,RRIRTRPPRLPRPRPRPVAMPRP,-0.0639
2,RRIRFRPPRLPRPRPRPIQAPRP,0.00328
3,RRIRSRPPRLPRPRPRPPMTPRP,0.243
4,RRIRTRPPRLPRPRPRPAMRPRP,0.445
5,RRIRHRPPRLPRPRPRPWDWPRP,-0.00132
6,RRIRARPPRLPRPRPRPCLEPRP,0.19
7,RRIRNRPPRLPRPRPRPMFWPRP,0.0282
8,RRIRKRPPRLPRPRPRPQIAPRP,-0.11
9,RRIRSRPPRLPRPRPRPHQAPRP,-0.161
10,RRIRARPPRLPRPRPRPNRQPRP,0.257
11,RRIRCRPPRLPRPRPRPGNQPRP,-0.644
12,RRIRRRPPRLPRPRPRPNECPRP,0.0616
13,RRIRWRPPRLPRPRPRPVRKPRP,0.167
14,RRIRFRPPRLPRPRPRPCEVPRP,-0.0179
15,RRIRFRPPRLPRPRPRPQEVPRP,0.0758
16,RRIRSRPPRLPRPRPRPIWKPRP,0.346
17,RRIRNRPPRLPRPRPRPALGPRP,-0.361
18,RRIRRRPPRLPRPRPRPPAFPRP,1.08
19,RRIRERPPRLPRPRPRPPAMPRP,-0.186
20,RRIRSRPPRLPRPRPRPHKQPRP,-0.0702
21,RRIRRRPPRLPRPRPRPSRYPRP,1.35
22,RRIRFRPPRLPRPRPRPGAGPRP,0.289
23,RRIRDRPPRLPRPRPRPHDSPRP,-0.00201
24,RRIRMRPPRLPRPRPRPNNDPRP,-0.0943
25,RRIRCRPPRLPRPRPRPFNWPRP,-0.648

row,Sequence,shrunken log2 fold change
1,RRIRERPPRLPRPRPRPCMHPRP,-0.0148
2,RRIRKRPPRLPRPRPRPGFIPRP,-0.307
3,RRIRPRPPRLPRPRPRPLVAPRP,0.101
4,RRIRNRPPRLPRPRPRPDFWPRP,0.3
5,RRIRIRPPRLPRPRPRPIENPRP,-0.223
6,RRIRTRPPRLPRPRPRPFETPRP,-0.117
7,RRIRGRPPRLPRPRPRPTPEPRP,0.917
8,RRIRERPPRLPRPRPRPRHNPRP,-0.137
9,RRIRNRPPRLPRPRPRPSLMPRP,0.0538
10,RRIRCRPPRLPRPRPRPNTFPRP,-0.664
11,RRIRQRPPRLPRPRPRPFCIPRP,-0.641
12,RRIRTRPPRLPRPRPRPTGYPRP,0.000642
13,RRIRCRPPRLPRPRPRPIVTPRP,0.0598
14,RRIRDRPPRLPRPRPRPVVVPRP,0.328
15,RRIRIRPPRLPRPRPRPIDSPRP,0.0203
16,RRIRSRPPRLPRPRPRPDTLPRP,-0.126
17,RRIRRRPPRLPRPRPRPNVAPRP,0.304
18,RRIRYRPPRLPRPRPRPDNLPRP,-0.196
19,RRIRQRPPRLPRPRPRPHQNPRP,-0.246
20,RRIRIRPPRLPRPRPRPDWKPRP,0.036
21,RRIRIRPPRLPRPRPRPEMSPRP,-0.0264
22,RRIRDRPPRLPRPRPRPLCGPRP,0.32
23,RRIRHRPPRLPRPRPRPTWMPRP,3.02
24,RRIRMRPPRLPRPRPRPCTNPRP,0.0685
25,RRIRTRPPRLPRPRPRPWQPPRP,-0.0263

row,Sequence,shrunken log2 fold change
1,RRIRDRPPRLPRPRPRPYNEPRP,-0.0252
2,RRIRDRPPRLPRPRPRPYVTPRP,-0.131
3,RRIRYRPPRLPRPRPRPMPDPRP,-0.204
4,RRIRWRPPRLPRPRPRPRAIPRP,0.539
5,RRIRKRPPRLPRPRPRPNVKPRP,0.0115
6,RRIRYRPPRLPRPRPRPHQWPRP,-0.649
7,RRIRQRPPRLPRPRPRPINHPRP,0.147
8,RRIRQRPPRLPRPRPRPENKPRP,-0.578
9,RRIRFRPPRLPRPRPRPDMRPRP,-0.000242
10,RRIRHRPPRLPRPRPRPIPEPRP,-0.16
11,RRIRPRPPRLPRPRPRPRREPRP,0.187
12,RRIRTRPPRLPRPRPRPRWQPRP,0.47
13,RRIRWRPPRLPRPRPRPQVGPRP,0.0734
14,RRIRHRPPRLPRPRPRPMSIPRP,-0.0719
15,RRIRCRPPRLPRPRPRPVMWPRP,0.131
16,RRIRGRPPRLPRPRPRPFTIPRP,-0.0307
17,RRIRVRPPRLPRPRPRPEQHPRP,0.262
18,RRIRLRPPRLPRPRPRPCIFPRP,-0.463
19,RRIRDRPPRLPRPRPRPHMAPRP,-0.232
20,RRIRYRPPRLPRPRPRPVIRPRP,-0.139
21,RRIRPRPPRLPRPRPRPETHPRP,0.221
22,RRIRERPPRLPRPRPRPAPDPRP,0.26
23,RRIRIRPPRLPRPRPRPHYVPRP,-0.342
24,RRIRWRPPRLPRPRPRPQVKPRP,0.0306
25,RRIRNRPPRLPRPRPRPEVDPRP,0.478

row,Sequence,shrunken log2 fold change
1,RRIRLRPPRLPRPRPRPIRWPRP,-0.241
2,RRIRNRPPRLPRPRPRPVSIPRP,-0.0773
3,RRIRQRPPRLPRPRPRPWVLPRP,0.0639
4,RRIRGRPPRLPRPRPRPANKPRP,0.209
5,RRIRVRPPRLPRPRPRPKIWPRP,0.0958
6,RRIRERPPRLPRPRPRPIHEPRP,0.0218
7,RRIRDRPPRLPRPRPRPILYPRP,-0.131
8,RRIRGRPPRLPRPRPRPDPGPRP,0.616
9,RRIRFRPPRLPRPRPRPPPHPRP,1.37
10,RRIRFRPPRLPRPRPRPYQHPRP,-0.898
11,RRIRFRPPRLPRPRPRPHSRPRP,-0.112
12,RRIRVRPPRLPRPRPRPLCWPRP,0.00832
13,RRIRCRPPRLPRPRPRPLHTPRP,-0.0899
14,RRIRKRPPRLPRPRPRPKNTPRP,-0.0285
15,RRIRRRPPRLPRPRPRPVTYPRP,-0.0642
16,RRIRSRPPRLPRPRPRPAFLPRP,-0.0125
17,RRIRERPPRLPRPRPRPIPFPRP,-0.0238
18,RRIRNRPPRLPRPRPRPTYKPRP,-0.196
19,RRIRGRPPRLPRPRPRPYYGPRP,-0.289
20,RRIRMRPPRLPRPRPRPMQHPRP,0.579
21,RRIRQRPPRLPRPRPRPLPYPRP,-0.202
22,RRIRYRPPRLPRPRPRPQIQPRP,-0.473
23,RRIRDRPPRLPRPRPRPRGNPRP,0.088
24,RRIRTRPPRLPRPRPRPCSRPRP,-0.182
25,RRIRNRPPRLPRPRPRPSDFPRP,-0.00477

row,Sequence,shrunken log2 fold change
1,RRIRKRPPRLPRPRPRPDIEPRP,2.53
2,RRIRTRPPRLPRPRPRPGKRPRP,0.0687
3,RRIRGRPPRLPRPRPRPHSIPRP,0.169
4,RRIRLRPPRLPRPRPRPDTYPRP,-0.93
5,RRIRLRPPRLPRPRPRPSMFPRP,-0.498
6,RRIRHRPPRLPRPRPRPFVPPRP,-0.455
7,RRIRMRPPRLPRPRPRPHVYPRP,-0.207
8,RRIRLRPPRLPRPRPRPNSEPRP,-0.0888
9,RRIRSRPPRLPRPRPRPLNCPRP,-0.374
10,RRIRERPPRLPRPRPRPRAHPRP,0.352
11,RRIRPRPPRLPRPRPRPQSYPRP,-0.202
12,RRIRHRPPRLPRPRPRPLFWPRP,0.274
13,RRIRHRPPRLPRPRPRPQSMPRP,-0.156
14,RRIRFRPPRLPRPRPRPRLNPRP,-0.228
15,RRIRIRPPRLPRPRPRPVNLPRP,-0.116
16,RRIRVRPPRLPRPRPRPYGYPRP,-1.16
17,RRIRHRPPRLPRPRPRPHVFPRP,-0.0684
18,RRIRKRPPRLPRPRPRPIAWPRP,0.155
19,RRIRRRPPRLPRPRPRPKHFPRP,0.3
20,RRIRSRPPRLPRPRPRPTNKPRP,-0.328
21,RRIRHRPPRLPRPRPRPREDPRP,-0.0018
22,RRIRKRPPRLPRPRPRPFDLPRP,0.0686
23,RRIRCRPPRLPRPRPRPHSLPRP,-0.493
24,RRIRVRPPRLPRPRPRPIFKPRP,-0.0901
25,RRIRNRPPRLPRPRPRPKMHPRP,-0.0913

row,Sequence,shrunken log2 fold change
1,RRIRFRPPRLPRPRPRPLFAPRP,0.15
2,RRIRRRPPRLPRPRPRPPIRPRP,2.1
3,RRIRIRPPRLPRPRPRPIACPRP,-0.0842
4,RRIRWRPPRLPRPRPRPPDEPRP,0.654
5,RRIRHRPPRLPRPRPRPACNPRP,-0.155
6,RRIRLRPPRLPRPRPRPRHPPRP,0.163
7,RRIRFRPPRLPRPRPRPFLQPRP,-0.408
8,RRIRTRPPRLPRPRPRPLGWPRP,0.811
9,RRIRARPPRLPRPRPRPENRPRP,0.0495
10,RRIRIRPPRLPRPRPRPRLWPRP,0.0665
11,RRIRRRPPRLPRPRPRPGDHPRP,0.0619
12,RRIRHRPPRLPRPRPRPHWFPRP,-0.198
13,RRIRHRPPRLPRPRPRPLPVPRP,0.125
14,RRIRPRPPRLPRPRPRPWWYPRP,-0.121
15,RRIRERPPRLPRPRPRPVKDPRP,-0.189
16,RRIRVRPPRLPRPRPRPRRQPRP,0.0745
17,RRIRVRPPRLPRPRPRPQPGPRP,0.255
18,RRIRLRPPRLPRPRPRPPYCPRP,-0.0882
19,RRIRHRPPRLPRPRPRPVGMPRP,-0.63
20,RRIRTRPPRLPRPRPRPDHTPRP,-0.145
21,RRIRFRPPRLPRPRPRPHKIPRP,-0.495
22,RRIRVRPPRLPRPRPRPGCDPRP,0.952
23,RRIRERPPRLPRPRPRPGVNPRP,0.0154
24,RRIRCRPPRLPRPRPRPWQEPRP,-0.153
25,RRIRQRPPRLPRPRPRPLRFPRP,-0.041

# From the supplement of paper PMC9112550, “Optimization of the antimicrobial peptide Bac7 by deep mutational scanning” (BMC Biology, 2022)
